Where two headings read alike, the source gives them in different places.
Assays:
Assay in all cases: cell-based or functional assay
[1] = biological target: T1, cell surface IL-6 receptor (TF-1 cells) (human, UniProt P08887 20-468)
T1 sequence (looked up): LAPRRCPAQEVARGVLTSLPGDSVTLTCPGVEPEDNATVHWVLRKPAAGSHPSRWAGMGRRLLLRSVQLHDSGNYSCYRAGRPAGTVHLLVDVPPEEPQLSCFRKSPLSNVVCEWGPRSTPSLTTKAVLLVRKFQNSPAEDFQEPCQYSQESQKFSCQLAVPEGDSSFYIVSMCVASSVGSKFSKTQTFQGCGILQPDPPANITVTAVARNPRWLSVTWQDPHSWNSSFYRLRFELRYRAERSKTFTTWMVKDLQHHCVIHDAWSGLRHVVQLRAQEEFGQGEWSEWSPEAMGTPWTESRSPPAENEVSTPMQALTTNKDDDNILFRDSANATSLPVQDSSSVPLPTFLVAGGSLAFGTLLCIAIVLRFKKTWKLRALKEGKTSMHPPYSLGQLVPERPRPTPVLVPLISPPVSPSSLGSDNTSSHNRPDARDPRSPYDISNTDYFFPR

human IL-6Rα = biological target: T2, human IL-6Rα (human, UniProt P08887 20-358)
T2 sequence (looked up): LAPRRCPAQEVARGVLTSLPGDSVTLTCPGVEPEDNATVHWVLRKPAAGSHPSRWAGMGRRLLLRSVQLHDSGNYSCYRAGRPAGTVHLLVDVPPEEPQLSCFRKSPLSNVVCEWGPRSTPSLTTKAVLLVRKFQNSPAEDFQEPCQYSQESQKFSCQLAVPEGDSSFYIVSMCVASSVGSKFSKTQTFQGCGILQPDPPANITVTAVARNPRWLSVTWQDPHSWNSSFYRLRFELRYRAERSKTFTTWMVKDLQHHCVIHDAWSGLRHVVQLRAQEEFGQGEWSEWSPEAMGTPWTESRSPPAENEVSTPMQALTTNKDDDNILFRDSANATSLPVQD

[2] = biological target: T1, cell surface IL-6 receptor (TF-1 cells); remark: listed apart in the source

B1: tocilizumab (antibody, V domains shown)
VH: QVQLQESGPGLVRPSQTLSLTCTVSGYSITSDHAWSWVRQPPGRGLEWIGYISYSGITTYNPSLKSRVTMLRDTSKNQFSLRLSSVTAADTAVYYCARSLARTTAMDYWGQGSLVTVSS
VL: DIQMTQSPSSLSASVGDRVTITCRASQDISSYLNWYQQKPGKAPKLLIYYTSRLHSGVPSRFSGSGSGTDFTFTISSLQPEDIATYYCQQGNTLPYTFGQGTKVEIKR
With B1 the “IC50, IL-6 dependent growth of TF-1 cells” value [1] was 0.41 nM, the “IC50, IL-6 trans-signaling (MCP-1 secretion by HUVECs)” value (human IL-6Rα) was ~5 nM and the “IC50, IL-6 dependent growth of TF-1 cells” value [2] was 0.3 nM.
